Measurements as given in patent US20170355730.

T1: R9-PCP
T1 chain: RRRRRRRRRXDEXLI

T2: Antp-PCP
T2 chain: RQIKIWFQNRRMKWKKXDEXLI

T3: cFΦR4-PCP (not fully specified)
T3 chain: FXRRRRQXDEXLI


Experiments:
[1] = biological target: T1, R9-PCP
[2] = biological target: T2, Antp-PCP
[3] = biological target: T3, cFΦR4-PCP

Row | Protein | kcat/KM [1] | kcat/KM [2] | kcat/KM [3]
1 | TCPTP (protein) MPTTIEREFEELDTQRRWQPLYLEIRNESHDYPHRVAKFPENRNRNRYRDVSPYDHSRVKLQNAENDYINASLVDIEEAQRSYILTQGPLPNTCCHFWLMVWQQKTKAVVMLNRIVEKESVKCAQYWPTDDQEMLFKETGFSVKLLSEDVKSYYTVHLLQLENINSGETRTISHFHYTTWPDFGVPESPASFLNFLFKVRESGSLNPDHGPAVIHCSAGIGRSGTFSLVDTCLVLMEKGDDINIKQVLLNMRKYRMGLIQTPDQLRFSYMAIIEGAKCIKGDSSIQKRWKELSKEDLSPAFDHSPNKIMTEKYN | 457 M⁻¹ s⁻¹ | 970 M⁻¹ s⁻¹ | 2780 M⁻¹ s⁻¹
2 | PTP1B (construct not stated) (protein) MEMEKEFEQIDKSGSWAAIYQDIRHEASDFPCRVAKLPKNKNRNRYRDVSPFDHSRIKLHQEDNDYINASLIKMEEAQRSYILTQGPLPNTCGHFWEMVWEQKSRGVVMLNRVMEKGSLKCAQYWPQKEEKEMIFEDTNLKLTLISEDIKSYYTVRQLELENLTTQETREILHFHYTTWPDFGVPESPASFLNFLFKVRESGSLSPEHGPVVVHCSAGIGRSGTFCLADTCLLLMDKRKDPSSVDIKKVLLEMRKFRMGLIQTADQLRFSYLAVIEGAKFIMGDSSVQDQWKELSHEDLEPPPEHIPPPPRPPKRILEPHN | 14700 M⁻¹ s⁻¹ | 17400 M⁻¹ s⁻¹ | 37100 M⁻¹ s⁻¹
3 | CD45 (protein) YKIYDLHKKRSCNLDEQQELVERDDEKQLMNVEPIHADILLETYKRKIADEGRLFLAEFQSIPRVFSKFPIKEARKPFNQNKNRYVDILPYDYNRVELSEINGDAGSNYINASYIDGFKEPRKYIAAQGPRDETVDDFWRMIWEQKATVIVMVTRCEEGNRNKCAEYWPSMEEGTRAFGDVVVKINQHKRCPDYIIQKLNIVNKKEKATGREVTHIQFTSWPDHGVPEDPHLLLKLRRRVNAFSNFFSGPIVVHCSAGVGRTGTYIGIDAMLEGLEAENKVDVYGYVVKLRRQRCLMVQVEAQYILIHQALVEYNQFGETEVNLSELHPYLHNMKKRDPPSEPSPLEAEFQRLPSYRSWRTQHIGNQEENKSKNRNSNVIPYDYNRVPLKHELEMSKESEHDSDESSDDDSDSEEPSKYINASFIMSYWKPEVMIAAQGPLKETIGDFWQMIFQRKVKVIVMLTELKHGDQEICAQYWGEGKQTYGDIEVDLKDTDKSSTYTLRVFELRHSKRKDSRTVYQYQYTNWSVEQLPAEPKELISMIQVVKQKLPQKNSSEGNKHHKSTPLLIHCRDGSQQTGIFCALLNLLESAETEEVVDIFQVVKALRKARPGMVSTFEQYQFLYDVIASTYPAQNGQVKKNNHQEDKIEFDNEVDKVKQDANCVNPLGAPEKLPEAKEQAEGSEPTSGTEGPEHSVNGPASPALNQGS | 2940 M⁻¹ s⁻¹ | 22300 M⁻¹ s⁻¹ | 35100 M⁻¹ s⁻¹
4 | SHP2 (protein) AEIESRVRELSKLAETTDKVKQGFWEEFETLQQQECKLLYSRKEGQRQENKNKNRYKNILPFDHTRVVLHDGDPNEPVSDYINANIIMPEFETKCNNSKPKKSYIATQGCLQNTVNDFWRMVFQENSRVIVMTTKEVERGKSKCVKYWPDEYALKEYGVMRVRNVKESAAHDYTLRELKLSKVGQGNTERTVWQYHFRTWPDHGVPSDPGGVLDFLEEVHHKQESIMDAGPVVVHCSAGIGRTGTFIVIDILIDIIREKGVDCDIDVPKTIQMVRSQRSGMVQTEAQYRFIYMAVQHYIETLQRR | 248 M⁻¹ s⁻¹ | 2210 M⁻¹ s⁻¹ | 7400 M⁻¹ s⁻¹
5 | VHR (protein) MSGSFELSVQDLNDLLSDGSGCYSLPSQPCNEVTPRIYVGNASVAQDIPKLQKLGITHVLNAAEGRSFMHVNTNANFYKDSGITYLGIKANDTQEFNLSAYFERAADFIDQALAQKNGRVLVHCREGYSRSPTLVIAYLMMRQKMDVKSALSIVRQNREIGPNDGFLAQLCQLNDRLAKEGKLKP | 6240 M⁻¹ s⁻¹ | 2030 M⁻¹ s⁻¹ | 2460 M⁻¹ s⁻¹
